B1: Dual specificity mitogen-activated protein kinase kinase 3 (Homo sapiens), P46734 (parent)
chain: MESPASSQPASMPQSKGKSKRKKDLRISCMSKPPAPNPTPPRNLDSRTFITIGDRNFEVEADDLVTISELGRGAYGVVEKVRHAQSGTIMAVKRIRATVNSQEQKRLLMDLDINMRTVDCFYTVTFYGALFREGDVWICMELMDTSLDKFYRKVLDKNMTIPEDILGEIAVSIVRALEHLHSKLSVIHRDVKPSNVLINKEGHVKMCDFGISGYLVDSVAKTMDAGCKPYMAPERINPELNQKGYNVKSDVWSLGITMIEMAILRFPYESWGTPFQQLKQVVEEPSPQLPADRFSPEFVDFTAQCLRKNPAERMSYLELMEHPFFTLHKTKKTDIAAFVKEILGEDS

Consider two variants from IntAct's records for PubMed 11980910.

In the assay the parent is B1. Particulars: with dyr1b_human DYRK1B.
Consider MESPASSQPASMPQSKGKSKRKKDLRISCMSKPPAPNPTPPRNLDSRTFITIGDRNFEVEADDLVTISELGRGAYGVVEKVRHAQSGTIMAVKRIRATVNSQEQKRLLMDLDINMRTVDCFYTVTFYGALFREGDVWICMELMDTSLDKFYRKVLDKNMTIPEDILGEIAVSIVRALEHLHSKLSVIHRDVKPSNVLINKEGHVKMCDFGISGYLVDSVAKEMDAGCKPYMAPERINPELNQKGYNVKSDVWSLGITMIEMAILRFPYESWGTPFQQLKQVVEEPSPQLPADRFSPEFVDFTAQCLRKNPAERMSYLELMEHPFFTLHKTKKTDIAAFVKEILGEDS [T222E], for which the “effect of a mutation on the interaction” value was “increasing interaction”.

Consider MESPASSQPASMPQSKGKSKRKKDLRISCMSKPPAPNPTPPRNLDSRTFITIGDRNFEVEADDLVTISELGRGAYGVVEKVRHAQSGTIMAVKRIRATVNSQEQKRLLMDLDINMRTVDCFYTVTFYGALFREGDVWICMELMDTSLDKFYRKVLDKNMTIPEDILGEIAVSIVRALEHLHSKLSVIHRDVKPSNVLINKEGHVKMCDFGISGYLVDEVAKTMDAGCKPYMAPERINPELNQKGYNVKSDVWSLGITMIEMAILRFPYESWGTPFQQLKQVVEEPSPQLPADRFSPEFVDFTAQCLRKNPAERMSYLELMEHPFFTLHKTKKTDIAAFVKEILGEDS [S218E], for which the “effect of a mutation on the interaction” value was “increasing interaction”.
